Laboratory results as given in PMC10499894.
Values joined by “and” are separate entries in the source; they are usually repeats but may differ in a detail not shown here. Equal values may be shown once.

Key:
[1] = target: TadD, native sequence, tag not given (P. aeruginosa PAO1); test: pull-down; cysteine mutants of RcpA and TadD co-expressed in E. coli, single strep tag pulldown; RcpA-TadD particles counted on five negative stain EM micrographs per mutant (Laplacian-of-Gaussian blob detection), SDS-PAGE
[2] = target: RcpA, endogenous in P. aeruginosa PAO1 (P. aeruginosa PAO1 (endogenous)) (UniProt Q9HW96); test: pull-down; P. aeruginosa PAO1 with chromosomal tadD_(strep), native expression levels; membranes extracted with DDM; Strep-Tactin Sepharose; eluate seen by anti-strep Western blot and negative stain EM 2D class averages
[3] = target: TadD D139C (P. aeruginosa PAO1); test: pull-down; cysteine mutants of RcpA and TadD co-expressed in E. coli, single strep tag pulldown; RcpA-TadD particles counted on five negative stain EM micrographs per mutant (Laplacian-of-Gaussian blob detection), SDS-PAGE
[4] = target: RcpA_(strep), C-terminally strep-tagged RcpA (P. aeruginosa PAO1) (UniProt Q9HW96); test: cryo-EM structure; RcpA_(strep)-TadD_(FLAG) complex co-expressed in E. coli, double pulldown (StrepTrap, ANTI-FLAG M2), 0.06% DDM; graphene oxide support and tilted collection; C13 map at 2.7 Å, focussed TadD map; on holey carbon grids TadD was stripped off
[5] = target: _(strep)RcpA, N-terminally strep-tagged RcpA (P. aeruginosa PAO1) (UniProt Q9HW96); test: pull-down; RcpA constructs with the strep tag at the N-terminus co-expressed with TadD in E. coli; single strep tag pulldown; SDS-PAGE, Western blot and negative stain EM 2D class averages

Which RcpA-TadD particles relative to native levels [1] does the source give for “RcpA L414C (from UniProt Q9HW96 1-416) (natural protein)” here?
The RcpA-TadD particles relative to native levels was 9%.

Which RcpA-TadD complex relative to native levels [1] does the source give for “RcpA S415C (from UniProt Q9HW96 1-416) (natural protein)” here?
Its RcpA-TadD complex relative to native levels is 10%.

And the RcpA-TadD particles relative to native levels [1]?
The RcpA-TadD particles relative to native levels was 14%.

For “RcpA, endogenous in P. aeruginosa PAO1 (from UniProt Q9HW96 1-416) (natural protein)”, which stoichiometry N [2] is on record?
Its stoichiometry N is 13 and 14.

How did the RcpA-TadD particles relative to native TadD [3] turn out when “RcpA, native sequence, in the cysteine cross-linking assay (tag not stated) (from UniProt Q9HW96 1-416) (natural protein)” was run?
Its RcpA-TadD particles relative to native TadD is 2%.

For “RcpA_(strep), C-terminally strep-tagged RcpA (from UniProt Q9HW96 1-416) (natural protein)”, which stoichiometry N [4] is on record?
The stoichiometry N was 13 and 14.

“_(strep)RcpA, N-terminally strep-tagged RcpA (from UniProt Q9HW96 1-416) (natural protein)” was tested. Which stoichiometry N [5] did it give?
Its stoichiometry N is 13 and 14.
